# Reference: the RNAGym collection of RNA variant scans (doi:10.1093/molbev/msab373)
# B1: Azoarcus group I ribozyme (parent)
# chain: GUGCCUUGCGCCGGGAAACCACGCAAGGGAUGGUGUCAAAUUCGGCGAAACCUAAGCGCCCGCCCGGGCGUAUGGCAACGCCGAGCCAAGCUUCGGCGCCUGCGCCGAUGAAGGUGUAGAGACUAGACGGCACCCACCUAAGGCAAACGCUAUGGUGAAGGCAUAGUCCAGGGAGUGGCGAAAGUCACACAAACCGG
# Variants of: B1
# Assay: reverse-splicing fitness (ratio to wild type); higher = more active; in vitro selection; Mg2+ level not given
# Method in brief: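 An in vitro group I ribozyme library with randomized positions was T7-transcribed and gel-purified. In triplicate, 10 pmol RNA in EPPS pH 7.5 was reacted with 50 pmoles of a 30-nt RNA substrate for 1 h at 37 °C across several added MgCl2 levels (1–48 mM), then stopped with EDTA. Products were reverse transcribed from a substrate-complementary primer, PCR-amplified and sequenced (HiSeq 4000). Fitness is a variant's read proportion after selection over that before, normalised to wild type.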
row,Variant,reverse-splicing fitness
1,C82G A120G A145U C150G C169G,0.0107
2,C82G A120G A145U C150G C169A,0.0112
3,C82G A120U A145C C150U,0.0385
4,C82G A120U A145C C150G,0.0203
5,C82G A120U A145C C150A,0.00856
6,C82G A120G A145U,0.0294
7,C82G A120U A145G C150A C169U U176A,0.00465
8,C82G A120U A145G C150A C169U U176G,0.00206
9,C82G A120U A145G C150A C169U U176C,0.00375
10,C82G A120G C169A U176A,0.0209
11,C82G A120G C169A U176G,0.00403
12,C82G A120G C169A U176C,0.0252
13,C82G A120G A145U C150A C169U U176A,0.02
14,C82G A120G A145U C150A C169U U176C,0.0145
15,C82G A120G A145U C150A C169U U176G,0.00418
16,C82G A120G C150G C169G,0.00959
17,C82G A120G C150G C169U,0.00956
18,C82G A120G C150G C169A,0.00981
19,C82G A120G A145G C150A U176G,0.00757
20,C82G A120G A145G C150A U176A,0.011
21,C82G A120G A145G C150A U176C,0.0209

row,Variant,reverse-splicing fitness
1,C82G A120U A145C C150G C169A U176G,0.00165
2,C82G A120U A145C C150G C169A U176A,0.00219
3,C82G A120U A145C C150G C169A U176C,0.00176
4,C82G A120U A145G C150U C169G U176C,0.00419
5,C82G A120U A145G C150U C169G U176G,0.00186
6,C82G A120U A145G C150U C169G U176A,0.00552
7,C82G A120G A145G C150U C169U U176C,0.0187
8,C82G A120G A145G C150U C169U U176A,0.0213
9,C82G A120G A145G C150U C169U U176G,0.00473
10,C82G A120G A145U C150G C169U U176A,0.0125
11,C82G A120G A145U C150G C169U U176C,0.0129
12,C82G A120G A145U C150G C169U U176G,0.00487
13,C82G A120G C150G,0.00725
14,C82G A120G C150U,0.0196
15,C82G A120G C150A,0.00962
16,C82G A120U A145G C169A U176C,0.00321
17,C82G A120U A145G C169A U176A,0.00356
18,C82G A120U A145G C169A U176G,0.00159
19,C82G A120G A145G C150G U176C,0.011
20,C82G A120G A145G C150G U176A,0.00691
21,C82G A120G A145G C150G U176G,0.00614

row,Variant,reverse-splicing fitness
1,C82G A120G C150U C169A U176A,0.0184
2,C82G A120G C150U C169A U176G,0.00527
3,C82G A120G C150U C169A U176C,0.0189
4,C82G A120G A145U C150A C169G U176A,0.0132
5,C82G A120G A145U C150A C169G U176G,0.00401
6,C82G A120G A145U C150A C169G U176C,0.0157
7,C82G A120U A145C C169U,0.00694
8,C82G A120U A145C C169A,0.00201
9,C82G A120U A145C C169G,0.00562
10,C82G A120U A145G C150U C169A U176G,0.00223
11,C82G A120U A145G C150U C169A U176C,0.0027
12,C82G A120U A145G C150U C169A U176A,0.00578
13,C82G A120G C169U U176A,0.0236
14,C82G A120G C169U U176C,0.024
15,C82G A120G C169U U176G,0.00492
16,C82G A120U A145G C150G C169G U176A,0.00901
17,C82G A120U A145G C150G C169G U176C,0.00637
18,C82G A120U A145G C150G C169G U176G,0.00411
19,C82G A120G C150A C169G U176G,0.00479
20,C82G A120G C150A C169G U176A,0.0215
21,C82G A120G C150A C169G U176C,0.0228

row,Variant,reverse-splicing fitness
1,C82G A120G A145U C150U,0.0229
2,C82G A120G A145U C150G,0.00803
3,C82G A120G A145U C150A,0.00866
4,C82G A120U A145C,0.204
5,C82G A120U A145G,0.229
6,C82G A120U A145U,0.23
7,C82G A120G C169G,0.0529
8,C82G A120G C169A,0.0302
9,C82G A120G C169U,0.0237
10,C82G A120G C150U C169G U176A,0.0177
11,C82G A120G C150U C169G U176G,0.00485
12,C82G A120G C150U C169G U176C,0.0246
13,C82G A120G A145U C150A U176G,0.00553
14,C82G A120G A145U C150A U176A,0.0105
15,C82G A120G A145U C150A U176C,0.0139
16,C82G A120G A145G C150G C169G,0.0108
17,C82G A120G A145G C150G C169A,0.0111
18,C82G A120G A145G C150G C169U,0.0109
19,C82G A120U A145G C150G U176C,0.0152
20,C82G A120U A145G C150G U176G,0.0041
21,C82G A120U A145G C150G U176A,0.00899
